Publication PMC12705745

Target: T1, recombinant human C-reactive protein (human), P02741
T1 chain: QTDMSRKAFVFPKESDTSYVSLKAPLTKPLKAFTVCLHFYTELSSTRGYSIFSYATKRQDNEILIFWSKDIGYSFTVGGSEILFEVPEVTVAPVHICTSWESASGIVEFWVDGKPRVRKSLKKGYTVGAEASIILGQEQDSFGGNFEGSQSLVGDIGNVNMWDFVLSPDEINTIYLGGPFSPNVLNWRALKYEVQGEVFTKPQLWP
Test: cryo-EM structure; hCRP 6 mg/ml incubated with 4.5 mM CPS23F on ice for ~1 h, 0.02% Tween-20; C5 symmetry applied during reconstruction; 2.78 Å
Settings: remark: other sources report otherwise

- stoichiometry N: 5
B1: recombinant human C-reactive protein, P02741-1 19-224 (natural protein)
chain: QTDMSRKAFVFPKESDTSYVSLKAPLTKPLKAFTVCLHFYTELSSTRGYSIFSYATKRQDNEILIFWSKDIGYSFTVGGSEILFEVPEVTVAPVHICTSWESASGIVEFWVDGKPRVRKSLKKGYTVGAEASIILGQEQDSFGGNFEGSQSLVGDIGNVNMWDFVLSPDEINTIYLGGPFSPNVLNWRALKYEVQGEVFTKPQLWP
